In patent US20130236459A1 (MERRIMACK PHARMACEUTICALS, published 2013):
Read-outs that look alike come from different tables or passages of the source.

Tests used:
[1] = molecular target: T1, IGF-1R (receptor for insulin-like growth factor 1), endogenous on human tumor cell lines (human, UniProt P08069 31-1367); assay: cell-based or functional assay
[2] = molecular target: T1, IGF-1R (receptor for insulin-like …); assay: cell-based or functional assay; remark: listed apart in the source
[3] = molecular target: T2, ErbB3 (HER3), endogenous on human tumor cell lines (human, UniProt P21860 20-1342); assay: cell-based or functional assay
[4] = molecular target: T1, IGF-1R (receptor for insulin-like …); assay: cell-based or functional assay; remark: listed apart in the source
[5] = molecular target: T2, ErbB3 (HER3), endogenous on human tumor …; assay: cell-based or functional assay; remark: listed apart in the source
rat ErbB3-His = molecular target: T3, rat ErbB3-His (rat, UniProt Q62799 20-641, limits assumed); assay: ELISA, species specific ErbB3-His coated plate
T3 construct: not shown: His tag, not further described for this species form
Protocol: (§1) 96-well Reacti-bind® plates (Pierce, Fisher cat. No. PI-I5041) are coated with 50 ul of species specific ErbB3-His or IGF-1R-His (R&D Systems, cat. No. 348-RB and 305-GR, respectively) at 2 ug/ml in PBS and incubated overnight at 4° C. The next day plates are washed with PBS+0.05% Tween-20 (PBS-T) and blocked for 1 hr. at room temperature with 100 ul of Protein-Free Blocking Buffer (Pierce). Plates are washed with PBS-T and 50 ul of each PBA is added in duplicate. Concentrations start at 500 nM (in PBS-T) and included ten additional two-fold dilutions and one blank (PBS-T only). Plates are incubated at room temperature for two hours and then washed with PBS-T. 50 ul of anti-Fc-HRP (Jackson Labs) is added at 1:40,000 in PBS-T, and plates are incubated in the dark for 1 hr. at room temperature. Plates are again washed with PBS-T and 100 ul of TMB substrate (Thermo Scientific, TMB and peroxide solution mixed 1:1) is added. The plates are incubated for 5-15 minutes at room temperature until a blue color develops, and the reaction is stopped with 100 ul of STOP solution (Cell Signaling Technology). The absorbance is read at 450 nm on a PerkinElmer Envision plate reader, and binding curves are generated using GraphPad Prism.

mouse ErbB3-His = molecular target: T4, mouse ErbB3-His (mouse, UniProt Q61526 20-641, limits assumed); assay: ELISA, species specific ErbB3-His coated plate
T4 construct: not shown: His tag, not further described for this species form
Protocol: as §1

mouse IGF-1R-His = molecular target: T5, mouse IGF-1R-His (mouse, UniProt Q60751 31-936, limits assumed); assay: ELISA, species specific IGF-1R-His coated plate
T5 construct: not shown: His tag, not further described
Protocol: as §1

rat IGF-1R-His = molecular target: T6, rat IGF-1R-His (rat, UniProt P24062 31-936, limits assumed); assay: ELISA, species specific IGF-1R-His coated plate
T6 construct: not shown: His tag, not further described
Protocol: as §1

[6] = molecular target: T1, IGF-1R (receptor for insulin-like …); assay: cell-based or functional assay; remark: listed apart in the source
[7] = molecular target: T2, ErbB3 (HER3), endogenous on human tumor …; assay: cell-based or functional assay; remark: listed apart in the source

T2 sequence (P21860 20-1342 limits assumed): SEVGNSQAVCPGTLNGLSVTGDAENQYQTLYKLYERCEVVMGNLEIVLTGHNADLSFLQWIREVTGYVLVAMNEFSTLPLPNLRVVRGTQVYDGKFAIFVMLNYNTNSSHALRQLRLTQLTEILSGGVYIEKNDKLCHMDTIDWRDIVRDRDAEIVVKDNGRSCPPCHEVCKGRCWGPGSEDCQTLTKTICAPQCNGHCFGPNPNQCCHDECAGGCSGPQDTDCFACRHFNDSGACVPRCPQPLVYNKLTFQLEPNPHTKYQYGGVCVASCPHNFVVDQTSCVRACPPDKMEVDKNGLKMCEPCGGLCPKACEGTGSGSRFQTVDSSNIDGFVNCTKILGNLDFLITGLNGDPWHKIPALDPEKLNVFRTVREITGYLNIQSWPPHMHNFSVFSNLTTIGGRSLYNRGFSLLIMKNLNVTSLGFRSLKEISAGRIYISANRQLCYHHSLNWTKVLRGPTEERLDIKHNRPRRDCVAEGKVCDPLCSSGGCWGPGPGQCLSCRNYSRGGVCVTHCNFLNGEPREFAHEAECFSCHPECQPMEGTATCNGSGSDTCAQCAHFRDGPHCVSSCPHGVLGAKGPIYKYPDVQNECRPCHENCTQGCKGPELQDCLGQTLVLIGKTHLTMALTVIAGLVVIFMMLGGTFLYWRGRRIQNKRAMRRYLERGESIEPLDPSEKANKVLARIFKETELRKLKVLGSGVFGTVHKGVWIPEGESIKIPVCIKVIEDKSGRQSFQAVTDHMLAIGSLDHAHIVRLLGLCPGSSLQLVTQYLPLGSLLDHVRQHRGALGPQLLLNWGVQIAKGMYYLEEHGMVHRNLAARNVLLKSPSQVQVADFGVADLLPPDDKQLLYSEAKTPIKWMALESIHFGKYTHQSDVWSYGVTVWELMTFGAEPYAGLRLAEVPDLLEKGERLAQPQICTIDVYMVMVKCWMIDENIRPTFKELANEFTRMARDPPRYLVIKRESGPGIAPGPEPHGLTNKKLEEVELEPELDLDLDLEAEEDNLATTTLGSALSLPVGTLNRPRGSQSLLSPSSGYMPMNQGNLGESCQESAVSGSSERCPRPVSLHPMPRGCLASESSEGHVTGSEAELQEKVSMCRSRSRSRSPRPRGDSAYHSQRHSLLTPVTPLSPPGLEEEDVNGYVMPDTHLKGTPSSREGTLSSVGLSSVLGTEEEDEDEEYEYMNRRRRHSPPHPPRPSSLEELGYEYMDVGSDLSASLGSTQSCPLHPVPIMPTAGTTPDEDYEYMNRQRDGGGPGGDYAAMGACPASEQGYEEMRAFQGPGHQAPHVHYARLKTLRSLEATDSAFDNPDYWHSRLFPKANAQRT
T1 sequence (P08069 31-1367): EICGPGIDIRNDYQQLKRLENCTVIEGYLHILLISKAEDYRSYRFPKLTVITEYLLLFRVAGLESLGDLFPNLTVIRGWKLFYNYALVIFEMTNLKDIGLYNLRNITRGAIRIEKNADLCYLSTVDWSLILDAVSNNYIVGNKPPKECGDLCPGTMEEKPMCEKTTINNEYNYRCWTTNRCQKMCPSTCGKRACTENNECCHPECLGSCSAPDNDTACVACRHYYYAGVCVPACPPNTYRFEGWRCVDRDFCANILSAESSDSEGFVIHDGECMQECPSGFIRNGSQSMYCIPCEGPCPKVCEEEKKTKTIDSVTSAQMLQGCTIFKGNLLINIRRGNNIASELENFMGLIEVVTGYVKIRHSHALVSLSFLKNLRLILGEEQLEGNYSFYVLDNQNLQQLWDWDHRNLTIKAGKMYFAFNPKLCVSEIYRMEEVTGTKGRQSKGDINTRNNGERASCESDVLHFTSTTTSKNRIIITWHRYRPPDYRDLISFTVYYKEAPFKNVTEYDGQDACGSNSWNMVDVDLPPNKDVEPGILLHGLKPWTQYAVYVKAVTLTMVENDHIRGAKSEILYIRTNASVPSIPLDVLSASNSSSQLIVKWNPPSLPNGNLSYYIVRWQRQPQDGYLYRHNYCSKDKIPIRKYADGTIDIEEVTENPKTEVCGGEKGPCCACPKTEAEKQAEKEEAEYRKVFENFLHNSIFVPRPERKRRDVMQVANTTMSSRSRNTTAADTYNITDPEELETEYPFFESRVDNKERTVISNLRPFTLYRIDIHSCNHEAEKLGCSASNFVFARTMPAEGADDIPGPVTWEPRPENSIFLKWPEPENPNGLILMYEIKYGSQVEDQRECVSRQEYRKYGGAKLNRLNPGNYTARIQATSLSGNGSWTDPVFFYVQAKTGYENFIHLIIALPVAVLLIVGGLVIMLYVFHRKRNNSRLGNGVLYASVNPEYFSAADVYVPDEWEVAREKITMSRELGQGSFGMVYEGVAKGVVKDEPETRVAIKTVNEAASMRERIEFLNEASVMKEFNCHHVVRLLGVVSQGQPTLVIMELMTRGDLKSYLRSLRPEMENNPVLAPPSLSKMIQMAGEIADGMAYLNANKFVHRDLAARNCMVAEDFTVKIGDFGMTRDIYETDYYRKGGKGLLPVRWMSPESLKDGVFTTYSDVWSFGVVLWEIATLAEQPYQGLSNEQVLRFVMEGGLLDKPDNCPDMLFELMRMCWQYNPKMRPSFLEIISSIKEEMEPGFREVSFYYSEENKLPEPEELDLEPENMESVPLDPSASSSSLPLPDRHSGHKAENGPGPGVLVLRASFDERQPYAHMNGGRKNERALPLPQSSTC
T4 sequence (Q61526 20-641 limits assumed): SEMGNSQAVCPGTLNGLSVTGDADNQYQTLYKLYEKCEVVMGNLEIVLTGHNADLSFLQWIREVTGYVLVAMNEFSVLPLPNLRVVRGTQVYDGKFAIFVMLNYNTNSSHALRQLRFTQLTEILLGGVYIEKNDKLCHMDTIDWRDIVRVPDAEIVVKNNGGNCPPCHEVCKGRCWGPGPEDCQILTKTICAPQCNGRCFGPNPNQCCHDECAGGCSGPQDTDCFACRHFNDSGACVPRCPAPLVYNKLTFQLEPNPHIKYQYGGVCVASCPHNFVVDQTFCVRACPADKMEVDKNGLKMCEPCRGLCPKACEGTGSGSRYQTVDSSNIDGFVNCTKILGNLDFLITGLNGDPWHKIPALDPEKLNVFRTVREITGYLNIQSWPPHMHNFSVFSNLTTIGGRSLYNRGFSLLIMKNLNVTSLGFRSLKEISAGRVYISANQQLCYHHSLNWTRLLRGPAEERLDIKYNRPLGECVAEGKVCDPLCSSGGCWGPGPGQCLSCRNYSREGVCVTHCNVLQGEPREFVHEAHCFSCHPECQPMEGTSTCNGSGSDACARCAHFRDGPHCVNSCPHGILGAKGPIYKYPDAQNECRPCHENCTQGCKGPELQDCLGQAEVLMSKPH
T6 sequence (P24062 31-936 limits assumed): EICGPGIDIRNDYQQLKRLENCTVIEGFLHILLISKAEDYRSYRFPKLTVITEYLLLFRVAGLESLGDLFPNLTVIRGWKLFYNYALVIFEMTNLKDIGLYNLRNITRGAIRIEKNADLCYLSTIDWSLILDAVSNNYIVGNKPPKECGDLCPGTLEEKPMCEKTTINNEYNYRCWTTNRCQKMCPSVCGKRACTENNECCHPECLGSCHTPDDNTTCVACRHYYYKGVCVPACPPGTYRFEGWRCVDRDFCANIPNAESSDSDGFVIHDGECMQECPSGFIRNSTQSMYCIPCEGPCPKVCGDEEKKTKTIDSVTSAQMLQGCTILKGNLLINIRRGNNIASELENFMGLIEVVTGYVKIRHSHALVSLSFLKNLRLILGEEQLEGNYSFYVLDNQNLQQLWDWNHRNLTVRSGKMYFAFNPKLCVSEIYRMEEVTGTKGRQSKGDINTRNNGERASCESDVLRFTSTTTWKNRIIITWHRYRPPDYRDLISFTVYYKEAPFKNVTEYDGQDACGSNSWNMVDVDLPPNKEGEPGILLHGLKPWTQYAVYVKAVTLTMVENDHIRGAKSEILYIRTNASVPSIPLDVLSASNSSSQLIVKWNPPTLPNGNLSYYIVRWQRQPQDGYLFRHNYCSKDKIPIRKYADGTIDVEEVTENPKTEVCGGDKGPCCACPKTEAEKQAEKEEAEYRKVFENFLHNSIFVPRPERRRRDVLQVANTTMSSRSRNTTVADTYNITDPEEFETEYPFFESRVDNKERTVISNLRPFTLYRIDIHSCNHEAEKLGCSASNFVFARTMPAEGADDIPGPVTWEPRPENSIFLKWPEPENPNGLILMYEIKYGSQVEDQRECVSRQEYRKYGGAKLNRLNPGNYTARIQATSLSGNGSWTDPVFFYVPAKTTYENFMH
T5 sequence (Q60751 31-936 limits assumed): as the sequence (P24062 31-936 limits assumed) above, with G271D, F629Y, L714M counted along it
T3 sequence (Q62799 20-641 limits assumed): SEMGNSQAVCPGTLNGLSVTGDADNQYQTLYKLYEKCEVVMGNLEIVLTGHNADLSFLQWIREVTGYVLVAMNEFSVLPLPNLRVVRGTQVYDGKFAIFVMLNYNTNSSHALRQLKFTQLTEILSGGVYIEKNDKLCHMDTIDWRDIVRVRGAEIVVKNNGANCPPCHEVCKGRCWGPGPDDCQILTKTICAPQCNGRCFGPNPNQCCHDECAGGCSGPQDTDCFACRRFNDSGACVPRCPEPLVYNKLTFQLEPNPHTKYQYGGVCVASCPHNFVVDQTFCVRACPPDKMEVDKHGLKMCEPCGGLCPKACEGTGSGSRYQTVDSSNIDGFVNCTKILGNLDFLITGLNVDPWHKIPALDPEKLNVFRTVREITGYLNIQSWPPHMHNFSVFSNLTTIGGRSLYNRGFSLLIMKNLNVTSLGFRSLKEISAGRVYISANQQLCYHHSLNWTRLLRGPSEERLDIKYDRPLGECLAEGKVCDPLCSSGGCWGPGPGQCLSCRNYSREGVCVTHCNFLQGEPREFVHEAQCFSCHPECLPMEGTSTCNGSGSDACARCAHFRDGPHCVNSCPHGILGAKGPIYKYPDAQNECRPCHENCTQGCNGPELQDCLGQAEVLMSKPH

B1: P4-G1-C8 (bispecific antibody, human IgG1, kappa)
heavy: not shown
light: DIQMTQSPSSLSASLGDRVTITCRASQGISSYLAWYQQKPGKAPKLLIYAKSTLQSGVPSRFSGSGSGTDFTLTISSLQPEDSATYYCQQYWTFPLTFGGGTKVEIKRTVAAPSVFIFPPSDEQLKSGTASVVCLLNNFYPREAKVQWKVDNALQSGNSQESVTEQDSKDSTYSLSSTLTLSKADYEKHKVYACEVTHQGLSSPVTKSFNRGEC
notes: IgG1-(scFv)2: anti-IGF-1R Fab, anti-ErbB3 scFv; also called P4-C8
% IGF1R Downregulation (A549, 24 h) [1]: 70% | % IGF1R Downregulation (BxPC-3, 24 h) [1]: 67% | pIGF1R IC50 (BxPC-3) [2]: 1.3e-09 M (inferred) | pErbB3 IC50 (BxPC-3) [3]: 5.8e-07 M (inferred) | pAKT IC50 (BxPC-3, IGF1 40 ng/ml) [4]: 3.8e-10 M | pAKT IC50 (BxPC-3, IGF1 400 ng/ml) [4]: 3.4e-10 M | pIGF1R IC50 (BxPC-3, IGF1 40 ng/ml) [4]: 1.1e-10 M | pIGF1R IC50 (BxPC-3, IGF1 400 ng/ml) [4]: 8.8e-11 M | pAKT IC50 (BxPC-3, HRG 20 ng/ml) [5]: 1.06e-10 M | pAKT IC50 (BxPC-3, HRG 200 ng/ml) [5]: 1.01e-10 M | pErbB3 IC50 (BxPC-3, HRG 20 ng/ml) [5]: 6.76e-11 M | pErbB3 IC50 (BxPC-3, HRG 200 ng/ml) [5]: 5.7e-11 M | binding result (rat ErbB3-His): binds | binding result (mouse ErbB3-His): binds | binding result (mouse IGF-1R-His): binds | binding result (rat IGF-1R-His): binds | pIGF1R % Inhibition (BxPC-3) [6]: 91% | pIGF1R IC50 (BxPC-3) [6]: 1.3e-10 M (inferred) | pErbB3 % Inhibition (BxPC-3) [7]: 94% | pErbB3 IC50 (BxPC-3) [7]: 3.6e-11 M (inferred)
